The chains are these.
B2: His6-Rga7(1–320) (domain or fragment)
chain: MLSAPSSSTTPASPPTSPPNTTSSDDFAVLKEPKVEAILNSELGLAILNDRIKDYLLTCKELAGFFKKRSILEEESGKNLQKLAKSYLETFQSKHHSPQSFSASVITSMEIHEQLANHSLTLQKTLSAFSDQVIEFHKNAERKRKSIKEYAKKQENAYLEAVMQMDKSKSRFKGAETEYNRALDNKNTGDSQKKVGFFKPKSNAQLTKLEDEARLKAENAESDMHSKIENAQNVQKQLLCIHRPNYIKQFFSLQREIESSLIANYLRYTKLCESNTLLNGLTIRPQKPTPTNCGLQHALDNINANTDFVQYVLHASIKHE

The target in the data set “His6-Rga7(1–320)” is B2. Briefly: supernatant depletion assay.
The data set “AUC” deals with the molecule itself. Briefly: AUC.

Results on three molecules are retold here after PMC6425953 (Cell reports, 2019).

What is called Kd is the constant that tells how readily two partners part at equilibrium. A higher Kd goes with lower affinity. A word on the stoichiometry N: it is a count of units in the complex or per binding partner.

B1: GST-Rng10(751–1,038) (domain or fragment)
chain: SNSKAPAIEETTTTKVEVVAAHDAVSISSNSSTHKSHSEPLNRDELEVAALSRGSLPEPPKPNKQIVVQEEDQRDTLSLKTSTTGLSSHSKSAENNSTQQSTTSPSINSGASADAVSSGISKKADNSETNLNYFATLDAFVKSPLMSFDGLGELGSTDQRYNFFNQKIQEYSAYDSGLDNWIQFCLEKDGEAPKEAPPPPRSEPVSTTTKLAKRITQPSLSPARSTVTITHNIATEAKKKSKSAANDILHLFKKKAKSEQSNAKSSSSSIKESKKMKTLFGKKLGFKS
In the data set with His6-Rga7(1–320), B1 had a Kd of 430 nM.

Consider B2, for which the “stoichiometry N” value in the data set “AUC” stood at 2.

B3: GST-Rng10(751–950) (domain or fragment)
chain: SNSKAPAIEETTTTKVEVVAAHDAVSISSNSSTHKSHSEPLNRDELEVAALSRGSLPEPPKPNKQIVVQEEDQRDTLSLKTSTTGLSSHSKSAENNSTQQSTTSPSINSGASADAVSSGISKKADNSETNLNYFATLDAFVKSPLMSFDGLGELGSTDQRYNFFNQKIQEYSAYDSGLDNWIQFCLEKDGEAPKEAPPPP
Molecule B3 returned a Kd with His6-Rga7(1–320) of 690 nM.
